In one data set the target is T1, Pab-aCPSF1 (Pyrococcus abyssi, UniProt Q9V0P0 1-648).
T1 sequence: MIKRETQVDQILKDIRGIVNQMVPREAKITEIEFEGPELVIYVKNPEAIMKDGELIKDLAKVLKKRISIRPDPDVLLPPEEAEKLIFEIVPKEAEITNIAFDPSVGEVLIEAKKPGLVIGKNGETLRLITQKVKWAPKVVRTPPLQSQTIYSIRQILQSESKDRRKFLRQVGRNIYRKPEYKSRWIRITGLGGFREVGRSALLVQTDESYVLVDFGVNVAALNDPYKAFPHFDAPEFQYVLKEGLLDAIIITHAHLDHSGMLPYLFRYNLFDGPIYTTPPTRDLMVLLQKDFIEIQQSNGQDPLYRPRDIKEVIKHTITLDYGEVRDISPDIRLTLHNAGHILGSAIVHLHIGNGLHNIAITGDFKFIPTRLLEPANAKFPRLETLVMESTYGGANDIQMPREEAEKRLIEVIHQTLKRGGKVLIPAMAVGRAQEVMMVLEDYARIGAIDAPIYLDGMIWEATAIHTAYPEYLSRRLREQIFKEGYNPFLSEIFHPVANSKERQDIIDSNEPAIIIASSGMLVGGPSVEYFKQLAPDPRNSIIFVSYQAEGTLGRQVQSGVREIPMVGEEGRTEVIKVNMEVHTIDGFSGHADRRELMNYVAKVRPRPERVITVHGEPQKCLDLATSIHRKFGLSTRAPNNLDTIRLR
Kind of data set: EMSA.

The data set “SEC” deals with the molecule itself. Kind of data set: SEC.

B1: sR47MutCG (structured_RNA)
RNA: GAUGAAGAUGAUGAGCUCGGCAGGUCCUGAGGAGUGAUGAGGAUCUGCUGAGUGCUGAUUCACCUU
On to B1, for which, in the data set with Pab-aCPSF1, the binding result is given as “binds”.

B2: Pab-aCPSF1ΔKH (variant missing the first 179 residues of Pab-aCPSF1) (domain or fragment, Pyrococcus abyssi, UniProt Q9V0P0 180-648, looked up)
chain: EYKSRWIRITGLGGFREVGRSALLVQTDESYVLVDFGVNVAALNDPYKAFPHFDAPEFQYVLKEGLLDAIIITHAHLDHSGMLPYLFRYNLFDGPIYTTPPTRDLMVLLQKDFIEIQQSNGQDPLYRPRDIKEVIKHTITLDYGEVRDISPDIRLTLHNAGHILGSAIVHLHIGNGLHNIAITGDFKFIPTRLLEPANAKFPRLETLVMESTYGGANDIQMPREEAEKRLIEVIHQTLKRGGKVLIPAMAVGRAQEVMMVLEDYARIGAIDAPIYLDGMIWEATAIHTAYPEYLSRRLREQIFKEGYNPFLSEIFHPVANSKERQDIIDSNEPAIIIASSGMLVGGPSVEYFKQLAPDPRNSIIFVSYQAEGTLGRQVQSGVREIPMVGEEGRTEVIKVNMEVHTIDGFSGHADRRELMNYVAKVRPRPERVITVHGEPQKCLDLATSIHRKFGLSTRAPNNLDTIRLR
Consider B2, for which the “stoichiometry N” value in the data set “SEC” amounted to 2.

B3: sR47Mut21U (structured_RNA)
RNA: GAUGAAGAUGAUGAGCUCGGUAGGUCCUGAGGAGUGAUGAGGAUCUUGAGUGCUGAUUCACCUU
In the case of B3, the binding result with Pab-aCPSF1 is reported as “binds”.
